Where two headings read alike, the source gives them in different places. Values belong to the molecule of their own block, whether it stands above or below them. Square brackets hold non-standard residues; d marks the D form. Ends that are not written are not given here. sY = N[C@@H](Cc1ccc(OS(=O)(=O)O)cc1)C(=O)O
Legend:
[1] = target: RANTES (E66S mutant of human RANTES) (human); assay: 1H-15N-HSQC, intensities of monomer and dimer cross-peaks
[2] = target: RANTES (E66S mutant of human RANTES) (human); assay: as above; remark: listed apart in the source
[3] = target: RANTES (E66S mutant of human RANTES) (human); assay: as above; remark: listed apart in the source
[4] = target: RANTES (E66S mutant of human RANTES) (human); assay: as above; remark: listed apart in the source
[5] = target: RANTES (E66S mutant of human RANTES) (human); assay: as above; remark: listed apart in the source
[6] = target: CCR5 N-terminal peptide (Nt-CCR5) N-terminus (Homo sapiens) (UniProt P51681); conditions: cited from earlier work
CCR5 N-terminal peptide (Nt-CCR5) N-terminus (Homo sapiens), sequence (P51681 1-27): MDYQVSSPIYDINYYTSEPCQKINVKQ

[7] = target: T1, RANTES (Homo sapiens, UniProt P13501, E89S); assay: 1H-15N-HSQC NMR titration of U-15N-RANTES; format: binding; conditions: 293 K, pH 4.8; peptide up to 2.9 mM, 64 molar excess relative to RANTES; KD could not be extracted
T1 sequence (P13501 24-91 E89S): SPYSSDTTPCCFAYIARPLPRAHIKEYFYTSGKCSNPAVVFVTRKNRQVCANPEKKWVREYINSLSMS

[8] = target: RANTES (E66S mutant of human RANTES) (human); assay: NMR titration
[9] = target: RANTES (E66S mutant of human RANTES) (human); assay: NMR titration; remark: listed apart in the source
[10] = target: RANTES (E66S mutant of human RANTES) (human); assay: NMR titration; remark: listed apart in the source

ratio of monomer/dimer peak intensities, IM/ID [1]: 0.45 | stoichiometry N [1]: 2 | ratio of monomer/dimer peak intensities, IM/ID [2]: < 0.1 | ratio of monomer/dimer peak intensities, IM/ID [3]: 1.57 | ratio of monomer/dimer peak intensities, IM/ID [4]: 0.2 | ratio of monomer/dimer peak intensities, IM/ID [5]: 0.13
Molecule: RANTES (E66S mutant of human RANTES) (ligand)

Molecule: RANTES (from UniProt P13501)
Kd [6]: 1 µM

Saturation of RANTES chemical shift changes on titration [7]: saturation was not achieved
Molecule: TRSQKEGLHYTSSSHFPYSQYQ [ECL2]

Kd [8]: 16 µM | Kd [9]: 84 µM | Kd [10]: 100 µM
Molecule: MDYQVSSPI[sY]DIN[sY]YTSEPAQKINVKQ [Nt-CCR5 peptide (CCR5 residues 1-27), sulfated at Y10 and Y14]

Source: paper PMC3637433 (The FEBS journal, 2013)
